Source: patent US20140343256A1 (TECHNISCHE UNIVERSITAT MUNCHEN, published 2014)
Ends that are not written are not given here. * marks the point of attachment. Palmitoyl = CCCCCCCCCCCCCCCC(=O)*

Columns and labels:
[1] = molecular target: recombinant TLR2ECD-Fc fusion protein (human IgGFc fused mouse TLR2ECD protein) (murine; human) (UniProt Q9QUN7); assay: SPR competition: T2EC pre-incubated with T2.5, binding to immobilised P3CSK4
[2] = molecular target: T1, N-palmitoyl-S-(2,3-bis(palmitoyloxy)-(2R,S)-propyl)-(R)-cysteinyl-seryl-(lysyl)-3-lysine; assay: SPR, antibody alone over immobilised P3CSK4
T1 construct: Synthetic bacterial lipopeptide analogue and TLR2 agonist, immobilised on the SPR chip; also called P3CSK4; tripalmitoyl-cysteinyl-seryl-(lysyl)3-lysine
T1 peptide: Palmitoyl-C(2,3‑bis(palmitoyloxy)‑(2R,S)‑propyl)SKKKK

Sequence of recombinant TLR2ECD-Fc fusion protein (human IgGFc fused mouse TLR2ECD protein) (murine; human) (Q9QUN7 25-587 limits assumed, form in doubt): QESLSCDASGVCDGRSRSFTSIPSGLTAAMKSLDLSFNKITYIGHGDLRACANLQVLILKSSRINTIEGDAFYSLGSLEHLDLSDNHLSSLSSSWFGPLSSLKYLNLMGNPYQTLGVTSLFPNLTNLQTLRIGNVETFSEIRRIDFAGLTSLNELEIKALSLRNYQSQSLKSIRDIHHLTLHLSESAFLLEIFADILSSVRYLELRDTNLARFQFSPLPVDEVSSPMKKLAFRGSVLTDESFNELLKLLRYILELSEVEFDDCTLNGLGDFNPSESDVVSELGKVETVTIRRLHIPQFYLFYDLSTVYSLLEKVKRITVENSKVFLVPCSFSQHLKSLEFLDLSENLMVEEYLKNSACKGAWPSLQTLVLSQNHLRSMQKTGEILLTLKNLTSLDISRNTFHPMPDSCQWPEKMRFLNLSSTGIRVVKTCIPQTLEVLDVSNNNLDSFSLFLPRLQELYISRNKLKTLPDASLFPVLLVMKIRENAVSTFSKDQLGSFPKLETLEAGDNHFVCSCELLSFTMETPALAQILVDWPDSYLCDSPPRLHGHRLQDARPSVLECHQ

B1: murine monoclonal antibody T2.5 (antibody, V domains shown)
VH: QVQLQQSGPELVNPGASVKLSCKASGFTFTTYGINWVKQGPGQGLEWIGWIYPRDGSTNFNENFKDKAALTVDTSSSTAYMELHSLTSEDSAVYFCARLTGGTFLDYWGQGTTLTVSS
VL: DIVLTQSPASLAVSLGQRATISCRASESVEYYGTSLMQWYQQKPGQPPKLLIFGASNVESGVPVRFSGSGSGTDFSLNIHPVEEDDIVMYFCQQSRKLPWTFGGGTKLEIKR
notes: also called mAb T2.5; native T2.5
**Q.** Which results are given for B1?
**A.** molar excess of T2.5 over T2EC that abrogated the T2EC-P3CSK4 interaction (fold molar excess) [1]: 10; molar ratio (T2.5:T2ECD) required to reduce binding to 50% (molar ratio (T2.5:T2ECD)) [1]: 3.3; binding result [2]: no binding
